Test [1] deals with T1, peptide p7552 (human, not fully specified (residue 1)).
T1 peptide: CSSEIVLD
Kind of test: peptide ELISA at a mAB concentration of 1 ng/µl. For orientation: ELISA stands for enzyme-linked immunosorbent assay.

Test [2] addresses T2, peptide p7562 (human, not fully specified (residue 1)).
T2 peptide: CDSSEIVLD
Kind of test: peptide ELISA at a mAB concentration of 1 ng/µl.

The target in test [3] is T3, peptide p7605 (human, not fully specified (residue 1)).
T3 peptide: CSEIVL
The test can be described thus: peptide ELISA.

Test [4] has as its target T4, peptide p7564 (human, not fully specified (residue 1)).
T4 construct: also called cleaved peptide
T4 peptide: CPSDSSEIVLD
Kind of test: peptide ELISA.

The target of test [5] is T5, recombinant N-terminal 610 amino acids Huntingtin fragment recHTT610 (human, UniProt P42858 1-610).
T5 construct: range 1-610; Expressed in HEK293 freestyle cells and captured from cell extract by anti-V5 antibody; also called recombinant Huntingtin; reHTT610; not shown: two C-terminal V5 tags
T5 sequence (P42858 1-610): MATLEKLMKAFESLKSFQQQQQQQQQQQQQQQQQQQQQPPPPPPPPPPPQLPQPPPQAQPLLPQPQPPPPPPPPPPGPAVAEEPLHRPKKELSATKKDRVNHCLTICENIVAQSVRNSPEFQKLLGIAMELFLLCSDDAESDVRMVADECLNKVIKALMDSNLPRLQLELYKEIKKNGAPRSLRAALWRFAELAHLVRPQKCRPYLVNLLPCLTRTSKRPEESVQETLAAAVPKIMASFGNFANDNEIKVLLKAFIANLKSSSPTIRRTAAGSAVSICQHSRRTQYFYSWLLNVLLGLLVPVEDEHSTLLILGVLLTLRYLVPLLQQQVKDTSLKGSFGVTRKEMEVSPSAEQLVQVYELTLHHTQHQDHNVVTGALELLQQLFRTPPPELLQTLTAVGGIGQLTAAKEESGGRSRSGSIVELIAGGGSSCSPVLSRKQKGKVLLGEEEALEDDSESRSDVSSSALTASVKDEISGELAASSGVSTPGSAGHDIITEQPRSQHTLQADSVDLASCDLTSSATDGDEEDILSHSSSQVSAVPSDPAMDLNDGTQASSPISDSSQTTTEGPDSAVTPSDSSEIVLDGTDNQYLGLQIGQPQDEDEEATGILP
The test can be described thus: recHTT610 capture ELISA. Here is the method:
Binding of antibodies to N-terminal fragment HTT610 was determined by a standard protein capture ELISA procedure using Maxisorb™ ELISA plates (Thermo; CatNr. 439454), coated with 50 μl of a 1:5000 rabbit anti V5 mAB (Sigma, CatNr. V8137), blocking with blocking buffer (PBS, 1% BSA, 0.1% Tween 20), capturing of recombinant Huntingtin from HEK cell extracts (100 ng/μl total protein) followed by incubation with several dilutions of mouse anti HTT sera (1:100; 1:300 and 1:900) or with mAB2166 as reference (diluted 1:2000; Millipore, Cat Nr. MAB2166) for 1 hour at RT. ELISA incubations, washing and detection procedures were performed according to standard procedures.
In contrast to specific anti peptide signals (FIG. 11), only 2 out of 9 mAB candidates, namely PRR13 and PRR18, specifically recognize recombinant Huntingtin when tested by recHTT610 capture ELISA (as explained in Example 1). These two candidates provided an outstanding signal to noise ratio (i.e. >=4; calculated reHTT610-specific signal: HEK ctrl extracts), and PRR13 was selected for epitope characterization (see Example 4) and variable chain sequencing (see below). PRR13 was determined as IgG subtype mouse IgG2a.

Test [6] deals with T6, peptide p6773 (human, not fully specified (residue 18)).
T6 peptide: LPQPPPQAQPLLPQPQPC
The test can be described thus: peptide ELISA / peptide microarray.

Results on 2 molecules are retold here after patent US20170304384A1 (AFFIRIS, published 2017).

Ends that are not written are not given here.

B1: monoclonal antibody M1D1 (antibody, mouse IgM, V domains shown)
VH: EVQLVESGGGLVQPKGSLKLSCAASGFTFNTYAMNWVRQAPGKGLEWVARIRSKSNNYATYYADSVKDRFTISRDDSQSMLYLQMNNLKTEDTAMYYCVRHGEYGNPWFAYWGQGTLVTVSA
VL: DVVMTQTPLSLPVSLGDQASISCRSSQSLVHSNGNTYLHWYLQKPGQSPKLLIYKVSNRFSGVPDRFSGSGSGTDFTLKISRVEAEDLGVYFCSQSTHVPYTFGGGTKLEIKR
notes: Mouse hybridoma mAb raised with p7564, typed mouse IgM; The consensus entries appear to include the leader and the start of the constant region; also called mAB M1D1
Turning to B1, the binding result in test [1] is reported as “binds”; in test [2] it was “binds”; in test [3], “no binding (tested: mAB concentration of 1 ng/µl)”; in test [4], “binds”.

B2: monoclonal antibody PRR13 (antibody, mouse IgG2a, V domains shown)
VH: EVQLQQSAPELVKPGASVKMSCKASGYSFTDFYMKWVKQSHGKGLEWIGDIDPKNGDTFYNQKFKGRATLTVDKSSSTAYMQLNSLTTEDSAVYYCATYYGYTMDYWGQGTSVTVSS
VL: QIVLTQSPAIMSASLGERVTMTCTASSSVTSSYLHWYQQKPGSSPKLWIYSTSNLASGVPARFSGSGSGTSYSLTISSMEAEDAATYYCHQYRRPPRTFGGGTKLEIKR
notes: Mouse hybridoma mAb raised with p6773, typed mouse IgG2a; The consensus entries come from cDNA and appear to include the leader and the start of the constant region; also called mAB PRR13
Regarding B2, the “signal to noise ratio (reHTT610-specific signal : HEK ctrl extracts)” value in test [5] is not below 4 ratio. Moreover, the binding result in test [6] is “binds”.
